According to article doi:10.1101/2022.05.16.492129, “Cachd1 is a novel Frizzled- and LRP6-interacting protein required for neurons to acquire left-right asymmetric character” (bioRxiv, 2022):

B1: mouse Cachd1 extracellular domain (CACHD1ECD) (domain or fragment)
chain: DADFSILDEAQVLASQMRRLAAEELGVVTMQRIFNSLVYTEKISNGESEVQQLAKKIREKFNRYLDVVNRNKQVVEASYTAHLTSPLTAIQDCCTIPPSMMEFDGNFNTNVSRTVSCDRLSTTVNSRAFNPGRDLNSVLADNLKSNPGIKWQYFSSEEGIFTVFPAHKFRCKGSYEHRSRPIYVSTVRPQSKHIVVILDHGASVTDTQLQIAKDAAQVILSAIDEHDKISVLTVADAVRTCSLDQCYKTYLSPATSETKRKMSTFVSSVKPSDSPTQHAVGFHRAFQLIRSTSNSTRFQANTDMVIIYLSAGITSKDSSEEDKKATLRVINEENGFLNNSVMILTYALMNDGVTGLKELAFLRDLAEQNSGKYGIPDRTALPVIKGSMMVLNQLSNLETTVGRFYTNLPNRMIDEAVFSLPFSDEMGDGLIMTVSKPCYFGNLLLGIVGVDVNLAYILEDVTYYQDSLASYTFLIDDKGYTLMHPSLTRPYLLSEPPLHTDIIHYENIPKFELVRQNILSLPLGSQIITVPVNSSLSWHINKLRETGKEAYNVSYAWKMVQDTSFILCIVVIQPEIPVKQLKNLNTVPSSKLLYHRLDLLGQPSACLHFKQLATLESPTVMLSAGSFSSPYEHLSQPETKRMVEHYTAYLSDNTRLIANPGLKFSVRNEVMATSHVTDEWMTQMEMSSLNTYIVRRYIATPNGVLRIYPGSLMDKAFDPTRRQWYLHAVANPGLISLTGPYLDVGGAGYVVTISHTIHSSSTQLSSGHTVAVMGIDFTLRYFYKVLMDLLPVCNQDGGNKIRCFIMEDRGYLVAHPTLVDPKGHAPLEQQHITHKEPLVANDILNHPNFVKKNLCNSFSDRTVQRSYKFNTSLVGDLTNLVHGSHCSKYRLTRIPGTNAFVGIVNETCDSLAFCACSMVDRLCLNCHRMEQNECECPCECPLEVNECTGNLTNAENRNPSCEVHQEPVTYTAIDPGLQDALQQCVNSRCNQRMESGDCFGVLDCEWCVVDSDGKTHLDKSYCAPQKECFGGIVGAKSPYVDDMGAIGDEVITLNMIKS
notes: mouse Cachd1 extracellular domain, residues D50-S1107, in pNeoSec; also called mouse CACHD1ECD; source: deglycosylated with EndoF1 before crystallisation

Tests used:
Conditions in all cases: both partners purified
[1] = biological target: B1; assay: SPR; biotinylated FZD CRDs or LRP6 fragments immobilised (about 500-1,000 RU) on an SA sensor chip, CACHD1ECD as analyte at 100 μL/min; Biacore S200, 25 °C, 10 mM HEPES pH 7.5, 150 mM NaCl, 0.005% Tween 20; equilibrium response fitted to a one-site saturation binding model
[2] = biological target: B1; assay: crystal structure; ternary complex: Cachd1ECD mixed with equal molar FZD5CRD and LRP6 P3E3P4E4; 0.1 M calcium acetate, 0.1 M sodium acetate pH 4.5, 10% (w/v) PEG 4000; 4.7 Å
[3] = biological target: human FZD7 cysteine rich domain (FZD7CRD), biotinylated, for SPR (human, UniProt O75084 33-170, biotin); assay: SPR; biotinylated FZD CRDs or LRP6 fragments immobilised (about 500-1,000 RU) on an SA sensor chip, CACHD1ECD as analyte at 100 μL/min; Biacore S200, 25 °C, 10 mM HEPES pH 7.5, 150 mM NaCl, 0.005% Tween 20; equilibrium response fitted to a one-site saturation binding model

Row | Kd [1] [nM] | Binder | further results
1 | 950 | human FZD8 cysteine rich domain (FZD8CRD), biotinylated, for SPR (domain or fragment, UniProt Q9H461 28-158, looked up, biotin, human FZD8 CRD, residues A28-T158, synthesised (Genscript); also called human FZD8CRD; source: HEK293T, co-transfected with a BirA-ER plasmid) ASAKELACQEITVPLCKGIGYNYTYMPNQFNHDTQDEAGLEVHQFWPLVEIQCSPDLKFFLCSMYTPICLEDYKKPLPPCRSVCERAKAGCAPLMRQYGFAWPDRMRCDRLPEQGNPDTLCMDYNRTDLTT | 
2 | 170 | human LRP6 P3E3P4E4 (membrane proximal fragment), biotinylated, for SPR (domain or fragment, UniProt O75581 629-1244, looked up, biotin, human LRP6 P3E3P4E4 domains, residues V629-G1244; also called 3-4; source: HEK293T, co-transfected with a BirA-ER plasmid) VPEAFLLFSRRADIRRISLETNNNNVAIPLTGVKEASALDFDVTDNRIYWTDISLKTISRAFMNGSALEHVVEFGLDYPEGMAVDWLGKNLYWADTGTNRIEVSKLDGQHRQVLVWKDLDSPRALALDPAEGFMYWTEWGGKPKIDRAAMDGSERTTLVPNVGRANGLTIDYAKRRLYWTDLDTNLIESSNMLGLNREVIADDLPHPFGLTQYQDYIYWTDWSRRSIERANKTSGQNRTIIQGHLDYVMDILVFHSSRQSGWNECASSNGHCSHLCLAVPVGGFVCGCPAHYSLNADNRTCSAPTTFLLFSQKSAINRMVIDEQQSPDIILPIHSLRNVRAIDYDPLDKQLYWIDSRQNMIRKAQEDGSQGFTVVVSSVPSQNLEIQPYDLSIDIYSRYIYWTCEATNVINVTRLDGRSVGVVLKGEQDRPRAVVVNPEKGYMYFTNLQERSPKIERAALDGTEREVLFFSGLSKPIALALDSRLGKLFWADSDLRRIESSDLSGANRIVLEDSNILQPVGLTVFENWLYWIDKQQQMIEKIDMTGREGRTKVQARIAQLSDIHAVKELNLQEYRQHPCAQDNGGCSHICLVKGDGTTRCSCPMHLVLLQDELSCG | 
3 |  | human LRP6 P3E3P4E4, for crystallography (domain or fragment, UniProt O75581 629-1244, looked up, human LRP6 P3E3P4E4 domains, residues V629-G1244) VPEAFLLFSRRADIRRISLETNNNNVAIPLTGVKEASALDFDVTDNRIYWTDISLKTISRAFMNGSALEHVVEFGLDYPEGMAVDWLGKNLYWADTGTNRIEVSKLDGQHRQVLVWKDLDSPRALALDPAEGFMYWTEWGGKPKIDRAAMDGSERTTLVPNVGRANGLTIDYAKRRLYWTDLDTNLIESSNMLGLNREVIADDLPHPFGLTQYQDYIYWTDWSRRSIERANKTSGQNRTIIQGHLDYVMDILVFHSSRQSGWNECASSNGHCSHLCLAVPVGGFVCGCPAHYSLNADNRTCSAPTTFLLFSQKSAINRMVIDEQQSPDIILPIHSLRNVRAIDYDPLDKQLYWIDSRQNMIRKAQEDGSQGFTVVVSSVPSQNLEIQPYDLSIDIYSRYIYWTCEATNVINVTRLDGRSVGVVLKGEQDRPRAVVVNPEKGYMYFTNLQERSPKIERAALDGTEREVLFFSGLSKPIALALDSRLGKLFWADSDLRRIESSDLSGANRIVLEDSNILQPVGLTVFENWLYWIDKQQQMIEKIDMTGREGRTKVQARIAQLSDIHAVKELNLQEYRQHPCAQDNGGCSHICLVKGDGTTRCSCPMHLVLLQDELSCG | binding result [2]: binds
4 | 480 | mouse FZD5 cysteine rich domain (FZD5CRD), biotinylated, for SPR (domain or fragment, UniProt Q9EQD0 27-157, looked up, biotin, mouse Fzd5 cysteine rich domain, residues A27-T157, synthesised (Genscript); also called mouse FZD5CRD; source: HEK293T, co-transfected with a BirA-ER plasmid) ASKAPVCQEITVPMCRGIGYNLTHMPNQFNHDTQDEAGLEVHQFWPLVEIHCSPDLRFFLCSMYTPICLPDYHKPLPPCRSVCERAKAGCSPLMRQYGFAWPERMSCDRLPVLGGDAEVLCMDYNRSEATT | 
5 | 5860 | human LRP6 P1E1P2E2 (membrane distal fragment), biotinylated, for SPR (domain or fragment, UniProt O75581 20-630, looked up, biotin, human LRP6 P1E1P2E2 domains, residues A20-P630; source: HEK293T, co-transfected with a BirA-ER plasmid) APLLLYANRRDLRLVDATNGKENATIVVGGLEDAAAVDFVFSHGLIYWSDVSEEAIKRTEFNKTESVQNVVVSGLLSPDGLACDWLGEKLYWTDSETNRIEVSNLDGSLRKVLFWQELDQPRAIALDPSSGFMYWTDWGEVPKIERAGMDGSSRFIIINSEIYWPNGLTLDYEEQKLYWADAKLNFIHKSNLDGTNRQAVVKGSLPHPFALTLFEDILYWTDWSTHSILACNKYTGEGLREIHSDIFSPMDIHAFSQQRQPNATNPCGIDNGGCSHLCLMSPVKPFYQCACPTGVKLLENGKTCKDGATELLLLARRTDLRRISLDTPDFTDIVLQLEDIRHAIAIDYDPVEGYIYWTDDEVRAIRRSFIDGSGSQFVVTAQIAHPDGIAVDWVARNLYWTDTGTDRIEVTRLNGTMRKILISEDLEEPRAIVLDPMVGYMYWTDWGEIPKIERAALDGSDRVVLVNTSLGWPNGLALDYDEGKIYWGDAKTDKIEVMNTDGTGRRVLVEDKIPHIFGFTLLGDYVYWTDWQRRSIERVHKRSAEREVIIDQLPDLMGLKATNVHRVIGSNPCAEENGGCSHLCLYRPQGLRCACPIGFELISDMKTCIVP | 
6 |  | B1 | Kd [3]: 14200 nM
